Laboratory results from the DeepSol protein solubility set.

Assay: soluble on expression in E. coli; label from the status in PepcDB or PDB records

Row | Sequence | soluble on expression in E. coli
1 | GPGSMLRGCAAACGQCRESASAVYGQALWLLLRPWTRSPSLPSSTHARLGLRRALGTVTSSLSSSSSCATVHHPTRWVSRKSIEEQLPSNIKVDPNASATAGRENEGLGRDAFSSGINGIYGNRAESAMRGMLGPQGQADARESRAVPILGRASVQGTKYTLDRSTVFEHWRFHCSEPVGWHLSKLGSTTCKMVNDVNEAVESLQLQIIKGCNVFEIDGAASEVHQSIARGIYEALQAFELDRSGFVMVARCGLIKQPRFQDEITRVEASNTAAVRNRIIPIFERYKASSLPSTSLKSGFRISELDDSQLARLNLRRVDRTTAAGLSPDWLDAFFTNVAYNTRLECIDVLLLEGMHTLFDGRPDEHVDDDILQLFVYLERQVKQGVLQYYGVCSPHLAPPVPRNYPEMPPDALVPDKYRTPPKEPATINLYRLMALAERAGGADHHFRFVQYPFNLTQHQAISSPLPYDANHTLATLCKALGLTALGYSPLEAPNLMQLPERYHNFPMEADLKALRMNFFTVCERSVLKEMEIKDTIDKGPDTLPPLEHLFVASVYLAAQRQFTNLFFFTDWANYYMTPRFRRAMTRFKEASSADLKEWAKQYEQLISDLLRMRQRMFQHKHGKQAGLVNMAIDYVSPTLARCPMLNQKAINFATYGCNVLLCGFHVSRYFHEATELNPAKDGNLPIPEEELLALCSAETVSYANVSPPHPYMLEPLMGEGKISKQPSKGAAYLVRIDPQNPKFPDIPEELQTGDSDGEAPVSADGATAALHKDEAPEKAVKE | not soluble
2 | MKQAIVYWKTLKAGILTESDEGYSFAYDKDYLTMPEAQGISLTMPLREEPFQSNMLHPFFDGLIPEGWLLDIAQKNWKIDSRDRMALLLACCRDCIGAVSIEPLNTTEDDE | not soluble
3 | MAHHHHHHMSDKLEDIGEFVLVIGDFHSPMRNLGLPDCFKDLLKTDKIKHVLCTGNVGCNENLELLKNIADSVHITKGDMDNNFDFPEKINIKIGDFKISLVHGHQIIPWGDLNALLQWQKEYDSDIIISGHTHKNSINNFEGKYFINPGSATGAFQPWISNPTPSFILMAISKSSIVVYVYEEKNGKMNVEMSELRKQ | soluble
4 | MGSSHHHHHHSSGLVPRGSHMPLYYRSIIEEHMAVRKHVGIFDVSHMGDVTVSGKDASAFLDHMFPTKVSNLKNGECVYTAFLNDSGLMIDDTIVYRMGEDSYFFVPNAGTTEKIYRWVSDHSAGYSVKIENVSNRISSIALQGPESEEVLNELGFSYPGYFKFQYVSGKYMNAITGKDQIIISGTGYTGEKGVEFIIPNEHAVELWKKLLEAINKRNGLPAGLGARDTLRMEKGMLLSGHDFNEDRDPYEASVSFIVNNDEDFVGKKNLEIRRRSDHEIFRGFVLSDGIPRNGNPIKAGGKRVGTVTSGTISPVLNKGIALGYIDKAYSKENTEVMIEIRSVDHKAVVTKPRIVK | soluble
5 | AIAAHVSSETQDVSPKDELTASEASTRSPLCEHTFPGDSDLRSMIEEHAFQVLSQGSLLESPSYTVCVSEPDKDDDFLSLNFPRKLWKIVESDQFKSISWDENGTCIVINEELFKKEILETKAPYRIFQTDAIKSFVRQLNLYGFSKIQQNFQRSAFLATFLSEEKESSVLSKLHVFVFHHSLFGATFGEHHFQPCPLPSGNKAPISTWSGDSWLL | soluble
6 | MSLQLDLLPPQDRGQVHSVFVVVPRFNLTTLITMIETMRIGNYLSSERLFSWEVTSFDGLNLGASNGVRVHLDVEPDQTAPADQVFVLASWGGEHYQNKALASWLRKRARQGERICAVELGCYLVARAGLMDGKEATTHWSWINGFQEKFDQISVVEQLFTIDGRILTCAGGMAGVDLMLRLIEQSHGAGFSGEIADQMLHNEGHHHHHH | soluble
7 | MVKVTYDIPTCEDYCALRINAGMSPKTREAAEKGLPNALFTVTLYDKDRLIGMGRVIGDGGTVFQIVDIAVSKSYQGQDYGSLIMEHIMKYIKNVSVESAYVSLIADYPADKLYAKFGFMPTEPDSGGMYIKY | soluble
8 | GMTTEVKQSPRERLLEAAAALTYRDGVGIGVEALCKAAGVSKRSMYQLFESKDELLAASLKERSAAFVAKALPPADDGRSPRERILYVFERVESQAGAPDFQGCRYLAVQIELKDQAHPASRVAYQIKADLMAFFRSEAERGGASDPDLLARQLILVFDGASARAGIGADNLTGLIVPTLTTLLDAADMH | soluble
9 | STTEEESLSAAEEGYNVQRDYWRQAEESDGFDIENIKLPPGMHGRVMGLITYNCQLCYRYPFPVLVKLYAKFGLHRYNLIKGTSFELAALMKFNMLQNYMSSFYMTLLAHDPDPAASSSQKTFQVRVDEQQFGTLGINCSIARPKHEGDLLEVSTKTPFIPHFHGGALGDGIFKGELPDCLSDDALNALMEAVSKDELPEHVLDDALYARAGGIFQGELPDWPSDDALNDGKRFYMLKESEWQATDWISMYLELVITTTDRSITEPEVLSKLEIVKVAIETATKDEEPSNERLKAYRAHFYITFKGLAEPRAPRQVFEIGEHVERQAIVRRVMGHRGDLTLKGKLCGGQYIKRRSLALKSGEESPNCKKQTRVG | soluble
10 | MRPTRKCEFCGKTFVPRSGMQKYCSEECQAETKRLRKKRQQDLINGIEPIMDLQHQEYLTFSKAAILMGCTRQYIYKLVANGKLKASRLSSRMAFVRKADIEKMFEGHPYKRVVPASKSKLSKKAKAEKPTQNQEPTKGKEENDVLDYYSGEEVMSIYKVKKSWLYTSAKRNQIPMCRIAGKNYYSKRHIDEFFGTAVDLNSITEWVTADDVEEAFSMSKSALRAYTYRHKIPTKREYGRTYYSKEHLEELRRTDLMSDDSYYTTEQVQQIYGLTSANICHIVRVHHISKVKVGVKNLLLKTDVERAMAERAAKGL | not soluble
11 | MTFEEKRKHLETTYPNKRTPESRAKSREILKLIADNLEMFPIASPESSSSKAKTDPMSRLEHGSEFNDLTVPRVEKLTPVSELYSIENTSLKFGTEDDFSDLSYSNTSPFQSVSTLYDQPSTPFSDDSDLEATPRTCVQ | not soluble
12 | RCPELYRGVVMLDSPVLGLADKLFIRAAKRLGFIDRITPAGRTLGRRDAFADLDAARTYFASKTLFRRFDPDCLTAYLQHGLQQDGEQLRLRFDPATEISIYRSIPHTSPLPSRQLKVPLAMVRGKHSRVIMPHHGYLARRMRDGEYLSMPGGHMFPLERPDETAQLLKSLFARWDA | not soluble
13 | MGLPAHHIDAFLDRLRTAHYSEVSLRKKRRVLCAFSGWMKHRNIDLIDLDESVTARFMKRMIDASRDRVQRARPTLRQFLAYLRAEAIVCSPTLGSQSAIAHTYRRYLDYLRQDRGLAKNSLLVYGPFIRDFLDSHSAGDGSLLPDAFDAVTIRNHLLARSKGRSAEYTRLMAVALRSFCHFLFLRGDTARDLAGSVPSVRKWRQSTVPTFLTPEQQEALIASADRSTPTGLRDYAILLLLARLGLRAGEIIEIELDDIHWRSGELVVHGKGQMVEHVPLSSEVGAAIATYLRDGRGASASRRVFLRRLAPRVGLAGPAAIGKIVCQAFARVGFRPACRGAAHLFRHGLATTMIRHGASMAEIAEVLRHRSPDSTAIYAKVAFEDLRGVARSWPTAGGAILEHHHHHH | soluble
14 | MQVIVGHSSTRLPENNENGHTHKWTLFVKPGNRDYDEFPDNKLIQKVKFEIHESFAQPVRFVTKPPFKITETGFASFTTLVTIFLNLPNEKPRTIPYELTLFTGDQDVQLETQKLVVQKDVPPAYLELIKKYARTKKRKASLISNDEKSPSRKMHKITPVKEEESSQKMSKSKEKGVPIPKIDIEIEKASPKKEKKEKVKSPEELTRRLNECTDSHVIYKASEYLLTLPDTKLSQTTLKLSFDLSRCDSTTLMDIGRILKGKKAKK | not soluble
15 | MTYDYVIVGGGIVGVSTGWQLKRRYPEKSVLLIEKEAGFSRHQTGHNSGVIHAGVYYAPGSLKADFCKRGVERTLAFCAQHNIPVENCGKLLVATNEQELERMHALYDRCLQNQIDVEKLDAAQLKLAEPNIRGLGAILVKATSIVNYRLVTEKMAEAFMQLGGDVKIGTEVVGLEETPSSITLTCQQKNQRVSYQAKFLVTCSGLMADRLTKMLGLPTDFQIIPYRGEYYRLAPKHNQVVRHLIYPIPDPELPFLGVHLTRMIDGCVTVGPN | not soluble
16 | DAPLNSVEGFIRQVLGWREFLRHVYRREMPSLAEANQLGANEALPDFYWNGDTDMACLSDVVDGVRERGYSHHIERLMILANFGLIYGVEPAQLNRWFHAGYVDAFHWVTTPNVVEMGLYGAGVFATKPYASSANYVDKMSDYCSGCPYYKTKTTGDGACPFNALYWDFLDRNEETLRSNHRMGLMYSHVDNKSDEELGEIRERAAEIREMATKGE | not soluble
